This passage reports amyloid nucleation score results from the supplement of paper PMC12042874.

± gives the uncertainty stated by the source.

The nature of the data set: amyloid nucleation score (Sup35N fusion, yeast selection) (log enrichment); library NNK1; higher = more nucleation; inactive = no reads after selection. Put shortly:
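The nucleation score equals the log enrichment of output over input reads from DiMSum, centred on the mode score of non-aggregating sequences. It was computed only for sequences with 100 or more input reads. The reads came from Illumina sequencing of plasmid inserts from psi-negative yeast expressing Sup35N fused to peptides of 20 random codons, induced with 100 μM copper sulfate for 24 hours and grown 7 days at 30°C without adenine and uracil.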
In the case of QHTTVRFRTGDKRNQFLSSI, the amyloid nucleation score was -0.843 ± 1.1. As for FSLNQCVKGHVFGATICTLR, the figure is 1.86 ± 0.43; as for SNALVFNFSRHAFVNIVFVY, 4.04 ± 0.13; as for WNISSTFGYGNHWLG, 0.816 ± 0.52.

In turn, ETGSDEI showed an amyloid nucleation score of -0.55 ± 0.39. In the case of RSQPLGADVVKLPASRLGRL, the amyloid nucleation score is -1.11 ± 0.94.

In turn, NVFCPVHENVSRLLQRHTRL registered an amyloid nucleation score of 1.1 ± 0.53. Under LFWNFRRTGAGLAAGLVVGL stands -0.885 ± 1.4; under SCILS, “inactive”. Substance NLVVQCADGVILSFWDHMVG registered an amyloid nucleation score of 2.43 ± 0.32. As for DLDRDAKLS, the figure is -1.43 ± 0.7; as for GWNHWADTSGTLGK, 0.502 ± 0.73. For PVVGRARRYRREAAENVVLD, the amyloid nucleation score came to 0.943 ± 0.6. As for IYAYAIDSFRSLVFFVFMFG, the entry is “inactive”. Under VHNCMVFLLKFIDSRHFIVI stands -0.292 ± 1.6; under SCVRCQLS, 7.454 ± 0.05. As to GIRMRSKNYGSWWFPLLYGE, the amyloid nucleation score turned out to be 0.827 ± 0.84. For the substance DSCLSYFAILYFRLGFTRMW, the amyloid nucleation score entry is “inactive”. Under LRDRCTFG stands -0.755 ± 0.5. As to SNFGIIYM, the amyloid nucleation score result was “inactive”.

With GPDINSCRSCFSWYIVWFLV, the amyloid nucleation score worked out at 0.318 ± 0.7. The substance ETARLCRWSYK yielded an amyloid nucleation score of 2.22 ± 0.18. As for VFVVDIFLFVMNCPYDPLSR, the figure is 2.6 ± 0.066. As for EGLNNSLSSYTKDWAQVVLN, the figure is -0.079 ± 0.32. Take QVRSSDSGLVNHFVNE: the amyloid nucleation score entry is “inactive”.

Turning to RSIRSIESNYYLRNVTFISR, the amyloid nucleation score turned out to be 1.09 ± 0.31.

In the case of MRIHCVN, the amyloid nucleation score is -0.529 ± 2.1. As for SGMCNIQPQTCQ, the amyloid nucleation score was -0.351 ± 0.39. As for VAWSPLRSSKPGTLSTVGDT, the figure is 0.83 ± 1.1; as for GSFYSGI, 1.6 ± 0.76. Under ITVSYDKGFSFNLWGIHFKV stands 0.071 ± 0.28; under MSMDWICVTTYKAWSARLER, 0.689 ± 0.26; under SKRLLQL, -0.665 ± 0.87. As for GLYYSFRFYTFSVYRALRGS, the figure is -0.392 ± 1.1; as for VTVTYIRCTR, 1.25 ± 0.63; as for TKMVWASALWAHSPVMY, 0.724 ± 1.2. With VSANICNRIVDGHFSLFYLN, the amyloid nucleation score is -0.73 ± 0.37. MDVIFGLMS displayed an amyloid nucleation score of 0.729 ± 0.51. As for SVCGSLSC, the figure is 1.16 ± 0.76; as for KIVSEFCL, 0.36 ± 0.36; as for DCNFCL, -0.545 ± 1.1. Under RGLQNCASSTVRESGR stands 0.009 ± 1; under KCTVDQTSNIAACTSVGLCI, 5.36 ± 0.093; under YDLTSFGFSVIVCSDDTRSG, -0.043 ± 0.75.

The substance KNDNAYCGWSWLLLTDSVHF displayed an amyloid nucleation score of -0.836 ± 0.42. Consider RLDCIHNFALNSYFRIGAWG, for which the amyloid nucleation score is -0.215 ± 0.45. As for AFLGYNKIVGLNLAVLNTVG, the entry is “inactive”; as for FDSLNAYSLSPSMVMKDSRG, 0.17 ± 0.18; as for HYSTEEGRVCGSVKQQKAWL, -0.296 ± 0.52. As for RTPVLSCWWFEYMELRGQST, the figure is -0.412 ± 1.7.

IGDDLLGVFLYIETNSTPVF had an amyloid nucleation score of 0.655 ± 0.74. Under IGDRNVNLGVQVVVMKE stands 7.031 ± 0.048; under VVLPWSFIWRCGVERQ, -0.812 ± 0.42; under KWKVR, -0.068 ± 0.38. Under RGFLRRHGGKGFNVLQAVGR stands 1.16 ± 0.72; under FVGLVDN, 0.051 ± 0.49; under GGYWWQDRRHGPILYLVFWA, 0.552 ± 0.34.

In turn, SFAVCGKLDHWCPCSAITLV displayed an amyloid nucleation score of 1.08 ± 0.64. As for GIYNLHQFTCLFEAAAIACD, the figure is -0.478 ± 0.79. Under FVFLISAL stands -0.617 ± 0.5; under SHGNLYGHHERLNSTRNPES, -1.14 ± 0.9. As for TIWVEKLWDIYI, the entry is “inactive”; as for LNSKILGKSRTCDENSWPFV, -0.27 ± 0.51; as for FINRGAGPTLSRGQSRYNSA, 0.011 ± 0.3. Substance DLFDIDLRYFLLRVFKGCP gave an amyloid nucleation score of 0.579 ± 0.46. Under NAPLEWSSGHASQIVLGHVT stands -0.177 ± 0.69; under RMWRYASCHYI, 1.73 ± 0.76. Under FMGIGPDVEDLLW stands -0.538 ± 0.41.

The substance YMLSDLITCLCVAEELFRGQ registered an amyloid nucleation score of 4.81 ± 0.098. As for AGDTMAVWLPHQKRGGCFEM, the figure is -0.815 ± 1.2; as for ELNPMFKTQHWLNSWNIWLL, 2.47 ± 0.089; as for LLDSNHSVLYFIFGLVT, 1.27 ± 0.42.

On to GKRSDIVLMLLIEMGHMLSQ, for which the amyloid nucleation score came to 3.1 ± 0.13. As for PIDGTFL, the figure is -0.69 ± 0.62; as for SDALPVYVEFREGGKSRGWT, -0.916 ± 1.1. SSLKDSNLWSEIGTLWLTVM returned an amyloid nucleation score of -0.091 ± 0.25.

VNSKFMGKY: the amyloid nucleation score was 0.192 ± 0.39. In turn, YVPALYRVSGLCYLLTNHEF had an amyloid nucleation score of 0.557 ± 0.18. Under PGSIYMSPGCGYIQAVRDHI stands -0.205 ± 0.35; under TLRCDFLPRNKF, -0.595 ± 1.4. Under VSGTVLTIEYCPY stands 0.844 ± 0.27. Consider GGVGLDWLEVVFVCTRGQYD, for which the amyloid nucleation score result was “inactive”. As for FRPMEWLTFCSVRGLLLTIP, the amyloid nucleation score result was “inactive”. Under WIFIGTIPILLIGDRRSANV stands 6.35 ± 0.066. Under HYIPRRN stands -0.016 ± 1.7; under TVSKLSCYNVVDPTIWNLSD, 0.236 ± 0.69; under HRWSDVFPWRTVKMYQLSRC, 0.552 ± 0.76. As for EIQGNLNILSLLGLSRRSKG, the figure is 0.016 ± 0.72; as for GLFTVNDV, 0.374 ± 0.36. The substance CMYFFRVTGKINNINSLYCW registered an amyloid nucleation score of -0.824 ± 0.38. As for NTTHDGLRCEIRVWSENRRR, the figure is 1.39 ± 0.3; as for RMQRNRGYPKVLLDMN, -0.472 ± 0.46. As for SRMLAVKFKLVVTNCCVKLI, the figure is -0.598 ± 1.4; as for LFFSYMQLVTNSTCTYLRVF, 1.24 ± 0.74; as for VYMSIRYRGSDNIRICVSVR, -0.13 ± 0.43. Under GAVARIIDAVCVRLV stands -0.643 ± 1.1; under YSLLTVASREVSKQSGTSRI, 0.42 ± 1.2; under SELWDLG, -0.197 ± 0.85. Substance TVLNFKAQYRSSPMLAH returned an amyloid nucleation score of 0.862 ± 0.39. Under EYGLVRTLPVFRRVRRKYVG stands -0.666 ± 0.67; under KLFSK, “inactive”; under SLYKMVMCNGYSCLLLYLVC, 0.353 ± 0.97.

Regarding RMLIDGLSLVVDWRYVVEGG, the amyloid nucleation score is -0.192 ± 0.31. As for IASMSVFPSHMCFVGTSTVR, the figure is -0.417 ± 0.34; as for NWTVFLATNGF, -0.095 ± 0.85. Under VDPAD stands 0.553 ± 0.43; under RTNSWAESHRSHCVCATSCG, -0.743 ± 0.6. Under LNHRGGLVDGFMAAGPRKFR stands -0.793 ± 1. Regarding VKVIKLRHSLGTFFCSAQLQ, the amyloid nucleation score entry is “inactive”. Under QSFSKKEESYILYITRVHEP stands 0.88 ± 0.69. As for LGKRDFSGFSAKSQLFK, the figure is -0.613 ± 0.27; as for HANISLRSWRFRYHCREFKG, 1.47 ± 0.2; as for FDSVESRTAPTRMILLRTLF, “inactive”. FGHYFDTLKPYSRALWRVVS yielded an amyloid nucleation score of -0.641 ± 0.61. RSNCWFEV yielded an amyloid nucleation score of 0.035 ± 0.4. As for SEWGSQSSGAGSFTMV, the figure is -1.35 ± 2.4; as for HRAWAQVFFPELARSLVRSQ, 0.216 ± 0.6.

For the substance SSYMLWFAIFVRNLNPLVFW, the amyloid nucleation score is -0.871 ± 0.37. In the case of TPSMKWFPKLLVLVSSTRHY, the amyloid nucleation score is -0.51 ± 0.44. Under YWTDGLFGDAT stands 0.141 ± 0.31; under LIVNRSKFLT, 0.625 ± 0.36; under TTRAHEVDTYLYFHFGVGRT, 2.84 ± 0.17. As for DEDDSD, the figure is 0.471 ± 0.46.

In turn, LNSNPDCKTLFIHAWW came in with an amyloid nucleation score of 0.282 ± 1.2. Under GETLEVWFFRRRVIRWR stands “inactive”; under DIGLREFNWVTNITTLPQLG, 1.33 ± 0.61. Under QYVPNETVDI stands 1.4 ± 0.25; under ITQIADLWHKMT, -0.954 ± 0.89; under VLRTGVH, 1.25 ± 0.66. As to HGLAYCGRQLFGARFILRYR, the amyloid nucleation score was found to be 0.255 ± 0.23. FSTLICIGVE had an amyloid nucleation score of -0.35 ± 0.65.

As to SMVLKTTDAGDNLHSKCNML, the amyloid nucleation score is -1.09 ± 0.68. Under LWMYYESFF stands 0.843 ± 0.6. Under NLWLPAWCGLYQCNTGHSGY stands 7.996 ± 0.043; under KLSDSSLTKCRYSHFYRSSM, -1.99 ± 2.4; under SLSYFSSFI, “inactive”.

LIGRRGLHYLF: the amyloid nucleation score was -0.186 ± 1.9. Under IHSGQAEMGTLRYHSNKCKD stands -0.554 ± 1.7; under VILFYSR, 4.49 ± 0.11. As for APGDWLLSDASAAVGEMVE, the figure is 0.778 ± 0.81; as for YILNGVPVKAFFLGYGADYS, -0.979 ± 1.3.
